From the Immune Epitope Database (IEDB)
Blank lines part the entries; values can stand above or below the sequence they belong to.

Experiments:
[1] = biological target: HLA-B*39:01; test: IEDB peptide-MHC binding, purified MHC/competitive/fluorescence; filed as Kd, often an IC50 or EC50 that approximates it; ≥ and ≤ were set here for values at or beyond the usual limits of such assays
[2] = biological target: HLA-A*11:01; test: as above; conditions: source organism: Human immunodeficiency virus 1
[3] = biological target: HLA-A*30:01; test: as above
[4] = biological target: HLA-B*15:17; test: as above; conditions: source organism: Human immunodeficiency virus 1
[5] = biological target: HLA-A*01:01; test: as above
[6] = biological target: HLA-B*08:02; test: as above
[7] = biological target: HLA-C*15:02; test: IEDB peptide-MHC binding, purified MHC/direct/fluorescence; filed as Kd, often an IC50 or EC50 that approximates it; ≥ and ≤ were set here for values at or beyond the usual limits of such assays; conditions: source organism: Bacillus anthracis str. A0488
[8] = biological target: HLA-C*14:02; test: as above; conditions: source organism: Bacillus anthracis str. A0488
[9] = biological target: HLA-C*12:03; test: as above; conditions: source organism: Bacillus anthracis str. A0488
[10] = biological target: HLA-B*15:02; test: IEDB peptide-MHC binding, purified MHC/competitive/fluorescence; filed as Kd, often an IC50 or EC50 that approximates it; ≥ and ≤ were set here for values at or beyond the usual limits of such assays
[11] = biological target: HLA-A*03:01; test: IEDB peptide-MHC binding, purified MHC/direct/fluorescence; filed as Kd, often an IC50 or EC50 that approximates it; ≥ and ≤ were set here for values at or beyond the usual limits of such assays; conditions: source organism: Zaire ebolavirus
[12] = biological target: HLA-A*02:19; test: as above; conditions: source organism: Zaire ebolavirus
[13] = biological target: HLA-A*02:03; test: as above; conditions: source organism: Zaire ebolavirus
[14] = biological target: HLA-A*68:02; test: as above; conditions: source organism: Zaire ebolavirus
[15] = biological target: HLA-A*02:12; test: as above; conditions: source organism: Zaire ebolavirus
[16] = biological target: HLA-A*02:11; test: as above; conditions: source organism: Zaire ebolavirus
[17] = biological target: HLA-A*24:03; test: as above; conditions: source organism: Zaire ebolavirus
[18] = biological target: HLA-A*23:01; test: as above; conditions: source organism: Zaire ebolavirus
[19] = biological target: HLA-B*58:01; test: as above; conditions: source organism: Sudan ebolavirus - Maleo (1979)
[20] = biological target: HLA-B*46:01; test: IEDB peptide-MHC binding, purified MHC/competitive/fluorescence; filed as Kd, often an IC50 or EC50 that approximates it; ≥ and ≤ were set here for values at or beyond the usual limits of such assays
[21] = biological target: HLA-A*26:01; test: as above; conditions: source organism: Zaire ebolavirus
[22] = biological target: HLA-B*27:03; test: as above; conditions: source organism: Zaire ebolavirus
[23] = biological target: HLA-B*51:01; test: as above; conditions: source organism: Zaire ebolavirus
[24] = biological target: HLA-B*18:01; test: as above
[25] = biological target: HLA-B*57:01; test: as above; conditions: source organism: Zaire ebolavirus
[26] = biological target: HLA-A*69:01; test: as above
[27] = biological target: HLA-A*02:01; test: as above
[28] = biological target: HLA-B*15:01; test: as above
[29] = biological target: HLA-A*03:01; test: as above; conditions: source organism: Corynebacterium glutamicum R
[30] = biological target: HLA-B*40:01; test: as above; conditions: source organism: Corynebacterium glutamicum R
[31] = biological target: HLA-A*31:01; test: as above; conditions: source organism: Corynebacterium glutamicum R
[32] = biological target: HLA-B*27:05; test: as above; conditions: source organism: Corynebacterium glutamicum R
[33] = biological target: HLA-B*35:01; test: as above; conditions: source organism: Corynebacterium glutamicum R
[34] = biological target: HLA-B*08:01; test: as above; conditions: source organism: Corynebacterium glutamicum R
[35] = biological target: HLA-B*07:02; test: as above; conditions: source organism: Corynebacterium glutamicum R
[36] = biological target: HLA-B*58:01; test: as above; conditions: source organism: Corynebacterium glutamicum R
[37] = biological target: HLA-A*29:02; test: IEDB peptide-MHC binding, purified MHC/direct/fluorescence; filed as Kd, often an IC50 or EC50 that approximates it; ≥ and ≤ were set here for values at or beyond the usual limits of such assays; conditions: source organism: Zaire ebolavirus
[38] = biological target: HLA-A*01:01; test: as above; conditions: source organism: Zaire ebolavirus
[39] = biological target: HLA-A*02:16; test: as above; conditions: source organism: Zaire ebolavirus
[40] = biological target: HLA-B*15:01; test: IEDB peptide-MHC binding, purified MHC/competitive/fluorescence; ≥ and ≤ were set here for values at or beyond the usual limits of such assays; conditions: source organism: Zaire ebolavirus
[41] = biological target: HLA-A*11:01; test: as above; conditions: source organism: Zaire ebolavirus
[42] = biological target: HLA-A*01:01; test: as above; conditions: source organism: Zaire ebolavirus
[43] = biological target: HLA-A*02:01; test: as above; conditions: source organism: Zaire ebolavirus
[44] = source organism: Human immunodeficiency virus 1
[45] = source organism: Zaire ebolavirus
[46] = source organism: Corynebacterium glutamicum R

Sequence: GTEELKSLY
Kd [1, 44]: ≥ 20 µM
Kd [2]: ≥ 20 µM
Kd [3, 44]: ≥ 20 µM
Kd [4]: 0.0595 µM
Kd [5, 44]: 0.0163 µM
Kd [6, 44]: ≥ 20 µM

Sequence: YLARYSGSM
Kd [7]: ≥ 20 µM
Kd [8]: 0.03 µM
Kd [9]: 0.3 µM
Kd ([10]; source organism: Bacillus anthracis str. A0488): 0.0123 µM

Sequence: YIRGVCSAF
Kd ([10]; source organism: Vibrio parahaemolyticus RIMD 2210633): 0.0807 µM

Sequence: TGIVSSMHY
Kd [11]: ≥ 20 µM
Kd [12]: ≥ 20 µM
Kd [13]: ≥ 20 µM
Kd [14]: ≥ 20 µM
Kd [15]: ≥ 20 µM
Kd [16]: ≥ 20 µM
Kd [17]: ≥ 20 µM
Kd [18]: ≥ 20 µM
Kd [19]: ≥ 20 µM
Kd [20, 45]: ≥ 20 µM
Kd [1, 45]: ≥ 20 µM
Kd [21]: ≥ 20 µM
Kd [22]: ≥ 20 µM
Kd [23]: ≥ 20 µM
Kd [24, 45]: ≥ 20 µM
Kd [25]: ≥ 20 µM
Kd [26, 45]: ≥ 20 µM
Kd [27, 45]: ≥ 20 µM

Kd [28, 46]: ≥ 20 µM
Kd [29]: ≥ 20 µM
Kd [20, 46]: ≥ 20 µM
Kd [30]: ≥ 20 µM
Kd [31]: ≥ 20 µM
Kd [24, 46]: ≥ 20 µM
Kd [32]: ≥ 20 µM
Kd [3, 46]: ≥ 20 µM
Kd [5, 46]: 19.7 µM
Kd [33]: ≥ 20 µM
Kd [26, 46]: ≥ 20 µM
Kd [34]: ≥ 20 µM
Kd [6, 46]: ≥ 20 µM
Kd [27, 46]: ≥ 20 µM
Kd [35]: ≥ 20 µM
Kd [36]: ≥ 20 µM
Sequence: RYDDGQSIY

Sequence: ATEDPSSGY
Kd [11]: ≥ 20 µM
Kd [37]: ≥ 20 µM
Kd [12]: ≥ 20 µM
Kd [13]: ≥ 20 µM
Kd [38]: 0.438 µM
Kd [14]: ≥ 20 µM
Kd [15]: ≥ 20 µM
Kd [16]: ≥ 20 µM
Kd [17]: ≥ 20 µM
Kd [18]: ≥ 20 µM
Kd [39]: ≥ 20 µM
Kd [28, 45]: ≥ 20 µM
Kd [20, 45]: ≥ 20 µM
Kd [1, 45]: ≥ 20 µM
Kd [21]: ≥ 20 µM
Kd [22]: ≥ 20 µM
Kd [23]: ≥ 20 µM
Kd [24, 45]: ≥ 20 µM
Kd [25]: ≥ 20 µM
Kd [26, 45]: ≥ 20 µM
Kd [27, 45]: ≥ 20 µM
IC50 [40]: ≥ 97.2 µM
IC50 [41]: 49.6 µM
IC50 [42]: ≥ 154 µM
IC50 [43]: ≥ 379 µM
